Data from the supplement of paper PMC9233669.
Variants at the floor of the assay were thinned out.

Columns and labels:
biotinyl-Trp-oxazolone = experiment: self-aminoacylation, catalytic enhancement (BWO) (fold over background); higher = more active; k-Seq, kA / k0A0; sequences stand for … in GGGAAUGGAUCCACAUCUACGAAUUC…UUCACUGCAGACUUGACGAAGCUG
Procedure, shortened: (§1)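 The uncatalyzed rate is the low-activity peak of a bimodal Gaussian fit, and catalytic enhancement is median kA divided by it. The kA values came from pseudo-first-order fits, with 1000 bootstraps, of per-sequence fraction reacted measured by streptavidin capture, triplicate qPCR and Illumina sequencing. Mutagenized RNA pools with a 21-nt variable region (0.43 μM) were reacted with each biotinyl-aminoacyl-oxazolone at 2–1250 μM in 50 μL HEPES/NaCl/KCl/MgCl2/CaCl2 buffer with 5% acetonitrile, pH 6.9–7.0, for 90 minutes at room temperature.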

biotinyl-Met-oxazolone = experiment: self-aminoacylation, catalytic enhancement (BMO) (fold over background); higher = more active; k-Seq, kA / k0A0; sequences stand for … in GGGAAUGGAUCCACAUCUACGAAUUC…UUCACUGCAGACUUGACGAAGCUG
Procedure, shortened: as §1

biotinyl-Ile-oxazolone = experiment: self-aminoacylation, catalytic enhancement (BIO) (fold over background); higher = more active; k-Seq, kA / k0A0; sequences stand for … in GGGAAUGGAUCCACAUCUACGAAUUC…UUCACUGCAGACUUGACGAAGCUG
Procedure, shortened: as §1

biotinyl-Phe-oxazolone = experiment: self-aminoacylation, catalytic enhancement (BFO) (fold over background); higher = more active; k-Seq, kA / k0A0; sequences stand for … in GGGAAUGGAUCCACAUCUACGAAUUC…UUCACUGCAGACUUGACGAAGCUG
Procedure, shortened: as §1

biotinyl-Val-oxazolone = experiment: self-aminoacylation, catalytic enhancement (BVO) (fold over background); higher = more active; k-Seq, kA / k0A0; sequences stand for … in GGGAAUGGAUCCACAUCUACGAAUUC…UUCACUGCAGACUUGACGAAGCUG
Procedure, shortened: as §1

biotinyl-Leu-oxazolone = experiment: self-aminoacylation, catalytic enhancement (BLO) (fold over background); higher = more active; k-Seq, kA / k0A0; sequences stand for … in GGGAAUGGAUCCACAUCUACGAAUUC…UUCACUGCAGACUUGACGAAGCUG
Procedure, shortened: as §1

Row | Sequence | self-aminoacylation (biotinyl-Trp-oxazolone) | self-aminoacylation (biotinyl-Met-oxazolone) | self-aminoacylation (biotinyl-Ile-oxazolone) | self-aminoacylation (biotinyl-Phe-oxazolone) | self-aminoacylation (biotinyl-Val-oxazolone) | self-aminoacylation (biotinyl-Leu-oxazolone)
1 | AUUCACCGAGGUCAUCCGGUG [Fam2.2 aminoacylation ribozyme variant] | 10.1 | 9.07 | 7.31 | 80.2 | 8.04 | 12.4
2 | ACUCACCUAAGUCAUCGGGUG [Fam2.2 aminoacylation ribozyme variant] | 10.6 | 9.14 | 5.02 | 67.2 | 5.83 | 10.5
3 | AAGUUUGCUAAUAGUCGUGAG [Fam3.1 aminoacylation ribozyme variant] | 2.15 | 1.31 | 1.19 | 2.86 | 1.04 | 1.13
4 | CUACUUCAAAUAAACGGUCUG [Fam1A.1 aminoacylation ribozyme variant] | 0.692 | 0.537 | 0.719 | 0.881 | 0.777 | 0.71
5 | AUUACCAAGGUCAUCGAGUGA [Fam2.1 aminoacylation ribozyme variant] | 9.76 | 7.64 | 3.64 | 43.2 | 3.96 | 8.44
6 | UUUAGCCUGGUCAUCGAGUGA [Fam2.1 aminoacylation ribozyme variant] | 7 | 5.59 | 4.42 | 21.9 | 4.28 | 5.82
7 | UAGUUUGCUAAUAGCCGCAAG [Fam3.1 aminoacylation ribozyme variant] | 1.88 | 0.885 | 1.22 | 2.71 | 1.05 | 1.25
8 | AUUACCCUUGUCAUCGAAUGA [Fam2.1 aminoacylation ribozyme variant] | 0.552 | 0.839 | 0.946 | 0.805 | 1.09 | 0.89
9 | UUUACCCUGGUCAGCGAGUGA [Fam2.1 aminoacylation ribozyme variant] | 7.06 | 5.62 | 3.46 | 16.3 | 2.96 | 5.43
10 | AAGUAUGCUAAUAGACGCAAG [Fam3.1 aminoacylation ribozyme variant] | 0.756 | 0.824 | 0.823 | 1.04 | 0.637 | 0.725
11 | AAGUUGGCUGAUAGUCGCAAG [Fam3.1 aminoacylation ribozyme variant] | 1.86 | 1.49 | 1.8 | 2.34 | 1.7 | 1.55
12 | AUUCACCUAGGUCAACGGAUG [Fam2.2 aminoacylation ribozyme variant] | 0.259 | 0.667 | 0.758 | 0.356 | 0.726 | 0.549
